{
  "source": "patent US20120322685A1",
  "about": "“DEVICE FOR COLLECTING AND ANALYZING MIGRATORY TUMOR CELLS” (priority 2010, published 2012)",
  "key": {"[1]": {"tested_on": "tumor cells and macrophages of primary mammary tumors", "assay": "in vivo invasion assay, needles with matrigel and growth factors in primary mammary tumor", "design": "species or system rats and mice", "settings": "factor in matrigel-filled needle placed in primary tumor", "excerpt": "(§1) Therefore, an in vivo invasion assay was created in which three needles (microneedles ˜100 um in diameter) containing matrigel and various growth factors are placed independently with microscopic precision, using a specially designed micromanipulator guided device, into the primary tumor for chemotaxis-based cell collection in vivo [3]. One needle contains control conditions (usually no ligand or an inhibitor), and the other two are identical. […] Fetal serum was also sufficient but this required signaling by the EGF receptor again implicating the EGF receptor. Furthermore, CSF-1 was also sufficient for cell collection. […] Migration and collection was directly correlated with macrophage density in the mammary gland, stage of progression to malignancy (only background levels of cells, <200 cells, were collected from normal mammary glands and adenoma stage tumors compared with carcinoma stage tumors, ˜1000 cells) and the presence of CSF1 in the tumor was required for cell collection as shown using mouse models with either decreased (op/op) or increased (tet on CSF-1) CSF-1 expression that regulates macrophage recruitment to the mammary gland and metastasis. […] Furthermore, the motility of tumor cells and intravasation occurs preferentially in association with macrophages. […]"}, "[2]": {"tested_on": "MDA-MB-231 derived mammary tumors", "assay": "in vivo invasion assay, MDA-MB-231 derived mammary tumors", "design": "species or system human tumor xenograft in SCID mice tumor xenograft in SCID mice", "settings": "MDA-MB-231 injected into mammary fat pad of mice; FIG. 1C", "excerpt": "Therefore, an in vivo invasion assay was created in which three needles (microneedles ˜100 um in diameter) containing matrigel and various growth factors are placed independently with microscopic precision, using a specially designed micromanipulator guided device, into the primary tumor for chemotaxis-based cell collection in vivo [3]. One needle contains control conditions (usually no ligand or an inhibitor), and the other two are identical. […] Fetal serum was also sufficient but this required signaling by the EGF receptor again implicating the EGF receptor. Furthermore, CSF-1 was also sufficient for cell collection. […]\nMammary tumors derived by injecting the human cell line MDA-MB-231 into a mammary fat pad of mice were used in the in vivo invasion assay. […] The involvement of EGF and CSF1 in carcinoma cell invasion has been analyzed from primary breast tumors derived from the injection of MDA-MB-231 cells into the mammary fat pads of SCID mice. […]"}, "[3]": {"tested_on": "Human lung tumors heterotransplanted into nude mice", "assay": "in vivo invasion assay, chemotaxis-based cell collection into needles, human lung tumor heterotransplants", "settings": "needles containing 25 nM EGF; first mouse to mouse transplant", "excerpt": "as §1"}},
  "data": [
    {"molecule": "EGF: epidermal growth factor, chemotactic factor used in collection needles (protein, UniProt P01133 23-1207, looked up, Pro-epidermal growth factor, epidermal growth factor, chemotactic factor used in collection needles) Pro-epidermal growth factor: PQHWSCPEGTLAGNGNSTCVGPAPFLIFSHGNSIFRIDTEGTNYEQLVVDAGVSVIMDFHYNEKRIYWVDLERQLLQRVFLNGSRQERVCNIEKNVSGMAINWINEEVIWSNQQEGIITVTDMKGNNSHILLSALKYPANVAVDPVERFIFWSSEVAGSLYRADLDGVGVKALLETSEKITAVSLDVLDKRLFWIQYNREGSNSLICSCDYDGGSVHISKHPTQHNLFAMSLFGDRIFYSTWKMKTIWIANKHTGKDMVRINLHSSFVPLGELKVVHPLAQPKAEDDTWEPEQKLCKLRKGNCSSTVCGQDLQSHLCMCAEGYALSRDRKYCEDVNECAFWNHGCTLGCKNTPGSYYCTCPVGFVLLPDGKRCHQLVSCPRNVSECSHDCVLTSEGPLCFCPEGSVLERDGKTCSGCSSPDNGGCSQLCVPLSPVSWECDCFPGYDLQLDEKSCAASGPQPFLLFANSQDIRHMHFDGTDYGTLLSQQMGMVYALDHDPVENKIYFAHTALKWIERANMDGSQRERLIEEGVDVPEGLAVDWIGRRFYWTDRGKSLIGRSDLNGKRSKIITKENISQPRGIAVHPMAKRLFWTDTGINPRIESSSLQGLGRLVIASSDLIWPSGITIDFLTDKLYWCDAKQSVIEMANLDGSKRRRLTQNDVGHPFAVAVFEDYVWFSDWAMPSVMRVNKRTGKDRVRLQGSMLKPSSLVVVHPLAKPGADPCLYQNGGCEHICKKRLGTAWCSCREGFMKASDGKTCLALDGHQLLAGGEVDLKNQVTPLDILSKTRVSEDNITESQHMLVAEIMVSDQDDCAPVGCSMYARCISEGEDATCQCLKGFAGDGKLCSDIDECEMGVPVCPPASSKCINTEGGYVCRCSEGYQGDGIHCLDIDECQLGEHSCGENASCTNTEGGYTCMCAGRLSEPGLICPDSTPPPHLREDDHHYSVRNSDSECPLSHDGYCLHDGVCMYIEALDKYACNCVVGYIGERCQYRDLKWWELRHAGHGQQQKVIVVAVCVVVLVMLLLLSLWGAHYYRTQKLLSKNPKNPYEESSRDVRSRRPADTEDGMSSCPQPWFVVIKEHQDLKNGGQPVAGEDGQAADGSMQPTSWRQEPQLCGMGTEQGCWIPVSSDKGSCPQVMERSFHMPSYGTQTLEGGVEKPHSLLSANPLWQQRALDPPHQMELTQ", "values": [
      {"measurement": "chemotaxis to indwelling needles / cell collection", "setting": "[1]", "result": "stimulated collection"},
      {"measurement": "fold more cells collected in response to EGF", "setting": "[2]", "result": 2.5, "unit": "fold"},
      {"measurement": "fold more cells collected in needles as compared to needles with buffer alone", "setting": "[3]", "result": 2.5, "unit": "fold"}
    ]},
    {"molecule": "CSF-1: growth factor chemotactic for macrophages (protein, UniProt P09603 33-554, looked up) Macrophage colony-stimulating …: EEVSEYCSHMIGSGHLQSLQRLIDSQMETSCQITFEFVDQEQLKDPVCYLKKAFLLVQDIMEDTMRFRDNTPNAIAIVQLQELSLRLKSCFTKDYEEHDKACVRTFYETPLQLLEKVKNVFNETKNLLDKDWNIFSKNCNNSFAECSSQDVVTKPDCNCLYPKAIPSSDPASVSPHQPLAPSMAPVAGLTWEDSEGTEGSSLLPGEQPLHTVDPGSAKQRPPRSTCQSFEPPETPVVKDSTIGGSPQPRPSVGAFNPGMEDILDSAMGTNWVPEEASGEASEIPVPQGTELSPSRPGGGSMQTEPARPSNFLSASSPLPASAKGQQPADVTGTALPRVGPVRPTGQDWNHTPQKTDHPSALLRDPPEPGSPRISSLRPQGLSNPSTLSAQPQLSRSHSSGSVLPLGELEGRRSTRDRRSPAEPEGGPASEGAARPLPRFNSVPLTDTGHERQSEGSFSPQLQESVFHLLVPSVILVLLAVGGLLFYRWRRRSHQEPQRADSPLEQPEGSPLTQDDRQVELPV", "values": [
      {"measurement": "chemotaxis to indwelling needles / cell collection", "setting": "[1]", "result": "sufficient"}
    ]}
  ]
}
